Laboratory results published in patent US20230272113A1.

Target: human FLT3 on transfected CHO cells (human) (UniProt P36888)
Assay: FACS, scFv on CHO-human FLT3 cells pre-incubated with FLT3 ligand (competitor)

Binder	median [+ligand]/median [w/o ligand]*100 [%]
FL-1 (scFv) scFv: QVTLKESGPVLVKPTETLTLTCTVSGFSLINARMGVSWIRQPPGKALEWLAHIFSNAEKSYRTSLKSRLTISKDTSKSQVVLTMTNMDPVDTATYYCARIPGYGGNGDYHYYGMDVWGQGTTVTVSSGGGGSGGGGSGGGGSDIQMTQSPSSLSASLGDRVTITCRASQGIRNDLGWYQQKPGKAPKRLIYASSTLQSGVPSRFSGSGSGTEFTLTISSLQPEDFATYYCLQHNNFPWTFGQGTKVEIK	> 75
FL-4 (scFv) scFv: QVTLKESGPALVKPTETLTLTCTLSGFSLNNAKMGVSWIRQPPGKALEWLAHIFSNDEKSYSTSLKSRLTISKDTSKGQVVLTMTNMDPVDTATYYCARIVGYGSGWYGYFDYWGQGTLVTVSSGGGGSGGGGSGGGGSDIQMTQSPSSLSASVGDRVTITCRASQDIRDDLGWYQQKPGNAPKRLIYGASTLQSGVPSRFSGSGSGTEFTLTISSLQPEDFATYYCLQHNSYPLTFGGGTKVDIK	> 75
FL-2 (scFv) scFv: QVTLKESGPVLVKPTETLTLTCTVSGFSLRNARMGVSWIRQPPGKALEWLAHIFSNDEKTYSTSLKSRLTISRDTSKGQVVLTMTKMDPVDTATYYCARIPYYGSGSHNYGMDVWGQGTTVTVSSGGGGSGGGGSGGGGSDIQMTQSPSSLSASVGDRVTITCRASQDIRNDFGWYQQKPGKAPQRLLYAASTLQSGVPSRFSGSGSGTEFTLTISSLQPEDFATYYCLQYNTYPWTFGQGTKVEIK	> 75
FL-6 (scFv) scFv: QVTLKESGPTLVKPTETLTLTCTLSGFSLNNARMAVSWIRQPPGKTLEWLAHIFSNDEKSYSPSLKSRLTISKDTSKSQVVLTMTNMDPEDTATYYCARIVGYGTGWYGFFDYWGQGILVTVSSGGGGSGGGGSGGGGSDIQMTQSPSSLSASVGDRVTITCRASQGIRNDLGWFQQKPGKAPKRLIYAASVLQSGVPSRFSGSGSGTEFTLTISSLQPEDFATYYCLQHNSYPLTFGGGTKVDIK	> 75
FL-3 (scFv) scFv: QVTLKESGPALVKPTETLTLTCTVSGFSLSNARMAVSWIRQPPGKALEWLAHIFSNGEKSYSTSLKSRLTISKDTSKTQVVLTMTNTDPVDTATYFCARIVGYSDWLLPFDHWGQGIMVTVSSGGGGSGGGGSGGGGSDIQMTQSPSSLSASVGDRVTITCRASQNINRFLNWYQQKPGKAPKLLIYAASSLQSGVPSRFSGSGSGTDFTLTISSLQPEDFATYYCLQHNSYPWTFGQGTKVDIK	> 75
FL-5 (scFv) scFv: QVTLKESGPMLVKPTETLTLTCTFSGFSLRNARMGVSWIRQPPGKALEWLAHIFWNDEKSYSTSLKSRLTISKDTSKSQVVLTMTNMDPVDTATYYCARIPYYGSGSYNYGMDVWGQGTTVTVSSGGGGSGGGGSGGGGSDIQMTQSPSSLSASVGDRVTITCRASQGIRNDLGWYQQKPGKAPKRLIYAASSLQSGVPSRFSGSGSGTEFTLTISSLQPEDFATYYCLQHNTYPLTFGGGTKVDIK	> 75
FL-7 (scFv) scFv: QVTLKESGPTLVKPTETLTLTCTVSGFSLNNARMGVSWIRQPPGKALEWLAHIFSNDEKSYSTSLKNRLTISKDSSKTQVVLTMTNVDPVDTATYYCARIVGYGTGWFGYFDYWGQGTQVTVSSGGGGSGGGGSGGGGSDIQMTQSPSSLSASVGDRVTITCRASQDIRTDLAWYQQKPGKAPKRLIYAASSLQSGVPSRFSGSGSGTEFTLTISSLQPEDFATYYCLQHNRYPLTFGGGTKVDIK	> 75

Results, then the binder that gave them:

median [+ligand]/median [w/o ligand]*100 [%]	Binder
> 75	FL-8 (scFv) scFv: QVTLKESGPALVKPTETLTLTCTVSGFSLSYARMGVSWIRQPPGKALEWLAQIFSNDEKSYSTSLKSRLTISKGTSNSQVVLTMTNMDPEDTATYYCARIVGYGTGWYGFFDYWGQGILVTVSSGGGGSGGGGSGGGGSDIQMTQSPSSLSASVGDRVTITCRASQGIRNDLGWYQQKPGKAPKRLIYAASSLQSGVPSRFSGSGSGTEFTLTISSLQPEDFATYYCLQHNSYPLTFGGGTKVDIK
> 75	FL-62 (scFv) scFv: QVQLVESGGGVVQPGRSLRLSCAASGFTFSSYGMHWVRQAPGKGLEWVAVISYDGSNEFYADSVKGRFTISRDNSKNTLYLQMNSLRAEDTAVYYCARGGEITMVRGVIGYYYYGMDVWGQGTTVTVSSGGGGSGGGGSGGGGSEIVMTQSPATLSVSPGERATLSCRASQGVRNNLVWYQQKPGQAPRLLIYGASTRATGIPARFSGSGSGTEFTLTISSLQSEDFATYYCLQHNSYPLTFGGGTKVEIK
> 75	FL-61 (scFv) scFv: QVQLVESGGGVVQPGRSLRLSCAASGFTFSSYGMHWVRQAPGKGLEWVAVISYDGSNEFYADSVKGRFTISRDNSKNTLYLQMNSLRAEDTAVYYCARGGEITMVRGVIGYYYYGMDVWGQGTTVTVSSGGGGSGGGGSGGGGSDIQMTQSPSSLSASVGDRVTITCRASQSISSYLNWYQQKPGKAPKLLIYAASSLQSGVPSRFSGSGSGTEFTLTISSLQPEDFATYYCLQHNSYPLTFGGGTKVEIK
> 75	FL-64 (scFv) scFv: QVQLVESGGGVVQPGRSLRLSCAASGFTFSSYGMHWVRQAPGKGLEWVAVISYDGSNEFYADSVKGRFTISRDNSKNTLYLQMNSLRAEDTAVYYCARGGEITMVRGVIGYYYYGMDVWGQGTTVTVSSGGGGSGGGGSGGGGSDIQMTQSPSSLSASVGNRVTITCRASQSISSYLNWYQQKPGKAPKLLIYAASSLQSGVPSRFSGSGSGTEFTLTISSLQPEDFATYYCLQHNSYPLTFGGGTKVDIK
> 75	FL-63 (scFv) scFv: QVQLVESGGGVVQPGRSLRLSCAASGFTFSSYGMHWVRQAPGKGLEWVAVISYDGSNEFYADSVKGRFTISRDNSKNTLYLQMNSLRAEDTAVYYCARGGEITMVRGVIGYYYYGMDVWGQGTTVTVSSGGGGSGGGGSGGGGSDIQMTQSPSSLSASVGDRVTITCRTSQSISSYLNWYQQKPGKAPKLLIYAASSLQSGVPSRFSGSGSGTEFTLTISSLQPEDFATYYCLQHNSYPLTFGGGTKVDIK
> 75	FL-60 (scFv) scFv: QVTLKESGPALVKPTQTLTLTCTFSGFSLSNARMGVSWIRQPPGKALEWLAHIFSNDEKSYSTSLKSRLTISKDTSKRQVVLTMTNMDPVDTATYYCARMVGYGSGWYAYFDYWGQGTLVTVSSGGGGSGGGGSGGGGSDIVMTQTPLSLSVTPGQPASISCRSSQSLLHSNGYNYLYWYLQKPGQPPQLLIYEVSNRFSGVPDRFSGSGSGTDFTLKISRVEAEDVGVYYCMQALQTPLTFGGGTKVEIK
> 75	FL-59 (scFv) scFv: QVTLKESGPMLVKPTETLTLTCTVSGFSLRNVRMGVSWIRQPPGKALEWLAHIFSNDEKSYSTSLKSRLTISKDTSKSQVVLTLTNMDPVDTATYFCARMPEYSSGWSGAFDIWGQGTMVTVSSGGGGSGGGGSGGGGSDIQMTQSPSSLSASVGDRVTITCRASQDIRDDLGWYQQKPGNAPKRLIYGASTLQSGVPSRFSGSGSGTEFTLTISSLQPEDFATYYCLQHNSYPLTFGGGTRLEIK
